Assay results taken from publication PMC12225977 (PLOS Computational Biology, 2025).

Target: the molecule itself
Assay: native MS

B1: Francisella tularensis dihydrolipoyl dehydrogenase (IPD) (enzyme)
chain: MSDIKTQVVVLGSGPGGYSAAFRAADLGLEVVLVERYAEIGGVCLNVGCIPSKAMLHIAKVINEARHLESLGIIEMGGLKINRENLLKYKDGVIGKLTGGLKGMAQMRKVKIVQGYGKFTSDKELAVEAADGKVTKIAFDNCIIAAGSSVIKLPFVPEDDRIIDSTGALEMKEIPETMLVVGGGIIGLEMAQVYSELGTKITVVEFADQLMNGVDKDLVKAYQKVNSRYDVRLKTAVTAMEAKEDGIYVTMEGDHPAKDERFDRVLMAIGRKPNGKLIDAEKAGVKVDERGFIPVDKQLRTNVPHIFAIGDIVGQPMLAHKAVPEGRTAAEVISGLNHSFDPLVIPSVAYTDPEVAWVGETETSAKAKGIKYEKGVFPWAASGRSLSIDRSEGMTKILFDENHKIIGASIVGTHAGELISEAAIAIEMGCDAEDIALTVHPHPTLSESLMMATEVYEGTATDLPPQKKKK
notes: also called Francisella IPD; MGH6-IPD
stoichiometry N: 2
